Changes are numbered by the printed parent chain. Names and notes keep the numbering of the source.

This test has as its target T1, hIL-11R (Homo sapiens, UniProt Q14626).
T1 sequence (Q14626 23-422): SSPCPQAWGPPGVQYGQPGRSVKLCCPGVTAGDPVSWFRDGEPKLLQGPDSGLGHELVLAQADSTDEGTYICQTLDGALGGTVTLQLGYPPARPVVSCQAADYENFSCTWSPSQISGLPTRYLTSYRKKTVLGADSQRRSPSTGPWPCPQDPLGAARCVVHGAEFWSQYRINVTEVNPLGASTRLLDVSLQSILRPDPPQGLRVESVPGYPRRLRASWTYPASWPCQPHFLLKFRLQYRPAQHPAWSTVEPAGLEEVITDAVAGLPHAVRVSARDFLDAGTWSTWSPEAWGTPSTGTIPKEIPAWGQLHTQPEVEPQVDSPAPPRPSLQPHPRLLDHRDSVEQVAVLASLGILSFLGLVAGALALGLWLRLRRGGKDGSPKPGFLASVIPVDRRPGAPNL
Put plainly: Alternate biolayer interferometry assay (AHC biosensors) ranking mAbs 16-32 against mAb5. Format: binding. Particulars: for ka / kd: AHC biosensors; for qualitative assessment: compared to mAb5 (comparator). The source says: A further series of antibodies were designed in which the residue at Kabat position 31 of the heavy chain was varied (mAbs 16-32). In this case an alternate biolayer interferometry assay was used to initially rank the antibodies compared to mAb5, the closest relative in sequence to mAbs 16-32. MAbs were loaded onto anti-human constant domain (AHC) biosensors (FortéBio) in 10×kinetics buffer consisting of PBS, 0.1% BSA, 0.02% polysorbate 20 (TWEEN™) for 120 s to achieve a spectral shift value of 0.8 to 1.2 nm. Association was carried out in the presence of 2-fold dilution series of hIL-11R and was allowed to proceed for 120 s. Dilution series started 10 nM. The dissociation in 10×kinetics buffer for 1200 s. Binding kinetic measurements were taken on an Octet RED96e instrument.
In general terms: Biolayer interferometry detects binding as a change in optical thickness at a sensor tip.

B1: mAb21: anti-IL-11Rα antibody, human IgG4 (S228P), kappa; VH SEQ ID NO: 233, VL SEQ ID NO: 234 (antibody, V domains shown)
VH: EVQLLESGGGLVQPGGSLRLSCAASGFTFSHYSMTWVRQAPGKGLEWVSSIVPYGDLTQYADSVKGRFTISRDNSKNTLYLQMNSLRAEDTAVYYCAKGPGWGSFDLWGRGTLVTVSS
VL: DIQMTQSPSSLSASVGDRVTITCQASQDINNYLNWYQQKPGKAPKLLIYDASNLQTGVPSRFSGSGSGTDFTFTISSLQPEDIATYYCQQHESQSPTFGPGTKVDIK
modifications: IgG4 S228P kappa constant regions; mAb21 VH Chain; mAb21 VL Chain
With B1, the ka worked out at 750000 M⁻¹ s⁻¹, the kd result was “off-scale”, the “potency compared to mAb5 by more detailed kinetic measurements (in words)” value (“potency compared to mAb5” below) is given as “further improved potency” and the qualitative assessment result is “improved/”.

B2: mAb24: anti-IL-11Rα antibody, human IgG4 (S228P), kappa; VH SEQ ID NO: 239, VL SEQ ID NO: 240 (antibody, V domains shown)
VH: B1 VH with H31L
VL: B1 VL
modifications: IgG4 S228P kappa constant regions; mAb24 VH Chain; mAb24 VL Chain
In the case of B2, the qualitative assessment entry is “similar”.

B3: mAb29: anti-IL-11Rα antibody, human IgG4 (S228P), kappa; VH SEQ ID NO: 249, VL SEQ ID NO: 250 (antibody, V domains shown)
VH: B1 VH with H31S
VL: B1 VL
modifications: IgG4 S228P kappa constant regions; mAb29 VH Chain; mAb29 VL Chain
For the molecule B3, the ka was 610000 M⁻¹ s⁻¹, the kd was determined as 1.8e-05 s⁻¹, the “potency compared to mAb5” value was “further improved potency” and the qualitative assessment result is “improved/”.

B4: mAb32: anti-IL-11Rα antibody, human IgG4 (S228P), kappa; VH SEQ ID NO: 255, VL SEQ ID NO: 256 (antibody, V domains shown)
VH: B1 VH with H31Y
VL: B1 VL
modifications: IgG4 S228P kappa constant regions; mAb32 VH Chain; mAb32 VL Chain
As to B4, the qualitative assessment result is “similar”.

B5: mAb19: anti-IL-11Rα antibody, human IgG4 (S228P), kappa; VH SEQ ID NO: 229, VL SEQ ID NO: 230 (antibody, V domains shown)
VH: B1 VH with H31F
VL: B1 VL
modifications: IgG4 S228P kappa constant regions; mAb19 VH Chain; mAb19 VL Chain
Turning to B5, the qualitative assessment result is recorded as “similar”.

B6: mAb16: anti-IL-11Rα antibody, human IgG4 (S228P), kappa; VH SEQ ID NO: 223, VL SEQ ID NO: 224 (antibody, V domains shown)
VH: B1 VH with H31A
VL: B1 VL
modifications: IgG4 S228P kappa constant regions; mAb16 VH Chain; mAb16 VL Chain
In the case of B6, the qualitative assessment entry is recorded as “similar”.

B7: mAb17: anti-IL-11Rα antibody, human IgG4 (S228P), kappa; VH SEQ ID NO: 225, VL SEQ ID NO: 226 (antibody, V domains shown)
VH: B1 VH with H31D
VL: B1 VL
modifications: IgG4 S228P kappa constant regions; mAb17 VH Chain; mAb17 VL Chain
For the molecule B7, the qualitative assessment entry is “decreased”.

B8: mAb25: anti-IL-11Rα antibody, human IgG4 (S228P), kappa; VH SEQ ID NO: 241, VL SEQ ID NO: 242 (antibody, V domains shown)
VH: B1 VH with H31M
VL: B1 VL
modifications: IgG4 S228P kappa constant regions; mAb25 VH Chain; mAb25 VL Chain
Consider B8, for which the qualitative assessment result is recorded as “similar”.

B9: mAb27: anti-IL-11Rα antibody, human IgG4 (S228P), kappa; VH SEQ ID NO: 245, VL SEQ ID NO: 246 (antibody, V domains shown)
VH: B1 VH with H31P
VL: B1 VL
modifications: IgG4 S228P kappa constant regions; mAb27 VH Chain; mAb27 VL Chain
Take B9: the qualitative assessment result is given as “decreased”.

B10: mAb20: anti-IL-11Rα antibody, human IgG4 (S228P), kappa; VH SEQ ID NO: 231, VL SEQ ID NO: 232 (antibody, V domains shown)
VH: B1 VH with H31G
VL: B1 VL
modifications: IgG4 S228P kappa constant regions; mAb20 VH Chain; mAb20 VL Chain
With B10, the qualitative assessment entry is “similar”.

B11: mAb30: anti-IL-11Rα antibody, human IgG4 (S228P), kappa; VH SEQ ID NO: 251, VL SEQ ID NO: 252 (antibody, V domains shown)
VH: B1 VH with H31T
VL: B1 VL
modifications: IgG4 S228P kappa constant regions; mAb30 VH Chain; mAb30 VL Chain
Regarding B11, the qualitative assessment result was “decreased”.

B12: mAb28: anti-IL-11Rα antibody, human IgG4 (S228P), kappa; VH SEQ ID NO: 247, VL SEQ ID NO: 248 (antibody, V domains shown)
VH: B1 VH with H31R
VL: B1 VL
modifications: IgG4 S228P kappa constant regions; mAb28 VH Chain; mAb28 VL Chain
As to B12, the qualitative assessment result was “similar”.

B13: mAb31: anti-IL-11Rα antibody, human IgG4 (S228P), kappa; VH SEQ ID NO: 253, VL SEQ ID NO: 254 (antibody, V domains shown)
VH: B1 VH with H31V
VL: B1 VL
modifications: IgG4 S228P kappa constant regions; mAb31 VH Chain; mAb31 VL Chain
Consider B13, for which the ka is 690000 M⁻¹ s⁻¹, the kd entry was “off-scale”, the “potency compared to mAb5” value is given as “further improved potency” and the qualitative assessment result was “improved/”.

B14: mAb22: anti-IL-11Rα antibody, human IgG4 (S228P), kappa; VH SEQ ID NO: 235, VL SEQ ID NO: 236 (antibody, V domains shown)
VH: B1 VH with H31I
VL: B1 VL
modifications: IgG4 S228P kappa constant regions; mAb22 VH Chain; mAb22 VL Chain
As for B14, the qualitative assessment entry is listed as “similar”.

B15: mAb26: anti-IL-11Rα antibody, human IgG4 (S228P), kappa; VH SEQ ID NO: 243, VL SEQ ID NO: 244 (antibody, V domains shown)
VH: B1 VH with H31N
VL: B1 VL
modifications: IgG4 S228P kappa constant regions; mAb23 VH Chain; mAb26 VL Chaim
With B15, the qualitative assessment result is “decreased”.

B16: mAb18: anti-IL-11Rα antibody, human IgG4 (S228P), kappa; VH SEQ ID NO: 227, VL SEQ ID NO: 228 (antibody, V domains shown)
VH: B1 VH with H31E
VL: B1 VL
modifications: IgG4 S228P kappa constant regions; mAb18 VH Chain; mAb18 VL Chain
As to B16, the qualitative assessment entry was “decreased”.

B17: mAb23: anti-IL-11Rα antibody, human IgG4 (S228P), kappa; VH SEQ ID NO: 237, VL SEQ ID NO: 238 (antibody, V domains shown)
VH: B1 VH with H31K
VL: B1 VL
modifications: IgG4 S228P kappa constant regions; mAb23 VH Chain; mAb23 VL Chain
Turning to B17, the ka is 720000 M⁻¹ s⁻¹, the kd result was “off-scale”, the “potency compared to mAb5” value is reported as “further improved potency” and the qualitative assessment result is “improved/”.

The values above are taken from patent US12365738B2, “Method of treating an interleukin-11-associated or -mediated fibrotic disease or condition by administering an anti-interleukin-11 receptor subunit alpha (IL-11RA) antibody” (Lassen Therapeutics, Inc., priority 2021, dated 2025).
